Experiment [1] concerns the target murine VCAM-1 (vascular endothelial adhesion molecule-1) (murine) (UniProt P29533). The experiment in a line: cell-based or functional assay.
Experiment [2] shares this target. The experiment can be described thus: bEnd.3 cells, unstimulated against IL-1α-stimulated.

Chain of UniProt P29533 (P29533 25-739): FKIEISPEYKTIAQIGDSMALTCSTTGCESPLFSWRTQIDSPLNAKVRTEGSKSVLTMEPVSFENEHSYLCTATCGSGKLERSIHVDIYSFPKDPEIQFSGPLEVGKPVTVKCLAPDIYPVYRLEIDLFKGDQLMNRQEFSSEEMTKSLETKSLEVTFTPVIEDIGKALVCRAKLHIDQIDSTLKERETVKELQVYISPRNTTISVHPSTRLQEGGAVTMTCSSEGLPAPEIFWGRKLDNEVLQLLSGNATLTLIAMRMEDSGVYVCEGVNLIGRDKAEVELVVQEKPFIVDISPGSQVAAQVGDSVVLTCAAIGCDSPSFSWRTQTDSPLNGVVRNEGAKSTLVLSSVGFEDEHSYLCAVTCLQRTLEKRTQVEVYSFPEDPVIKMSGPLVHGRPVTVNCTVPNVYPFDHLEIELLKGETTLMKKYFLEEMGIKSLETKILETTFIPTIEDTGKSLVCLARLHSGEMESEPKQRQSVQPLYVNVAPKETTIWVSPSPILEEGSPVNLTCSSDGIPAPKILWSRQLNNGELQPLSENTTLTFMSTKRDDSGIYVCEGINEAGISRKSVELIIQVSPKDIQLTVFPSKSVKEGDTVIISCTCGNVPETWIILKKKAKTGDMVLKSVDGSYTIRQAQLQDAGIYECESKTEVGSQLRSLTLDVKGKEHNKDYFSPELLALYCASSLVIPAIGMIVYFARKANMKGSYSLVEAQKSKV

With “control IgG·tTF (R187) coaguligand (from UniProt P13726 33-251)”, in experiment [1], the Generation of Factor Xa (intact cells, control/unstimulated) (ng per 10^4 cells per 60 min) was 0.26 and the Generation of Factor Xa (permeabilized cells, control/unstimulated) (ng per 10^4 cells per 60 min) was determined as 0.41.

In experiment [1], “truncated tissue factor (tTF), unconjugated (from UniProt P13726 33-251)” had a Generation of Factor Xa (intact cells, control/unstimulated) (ng per 10^4 cells per 60 min) of 0.26 and a Generation of Factor Xa (permeabilized cells, control/unstimulated) (ng per 10^4 cells per 60 min) of 0.39.

“anti-VCAM-1·tTF coaguligand (MK2.7 anti-VCAM-1 IgG covalently linked to truncated tissue factor) (from UniProt P13726 33-251)” displayed a percent lower amount bound to unstimulated versus stimulated cells in experiment [2] of 50%. In experiment [1], the Generation of Factor Xa (intact cells, IL-1α) (ng per 10^4 cells per 60 min) came to 3.17; the Generation of Factor Xa (intact cells, control/unstimulated) (ng per 10^4 cells per 60 min) stood at 1.64; the Generation of Factor Xa (permeabilized cells, IL-1α) (ng per 10^4 cells per 60 min) is 98.8; the Generation of Factor Xa (permeabilized cells, control/unstimulated) (ng per 10^4 cells per 60 min) amounted to 49.2.

For the origin of these results see US20030082187A1.
